Source: patent US20230257473A1 (TENEOBIO, published 2023)
Each block holds one binder with its values, some of them ahead of it.

How the values were obtained:
[1] = molecular target: BCMA on BCMA-expressing cells (H929 / NCI-H929, MM1.S, U266, Daudi) (human) (UniProt Q02223); test: flow cytometry on H929 cells; antibody 0.195 ng/ml
[2] = molecular target: BCMA on BCMA-expressing cells (H929 / NCI-H929, MM1.S, U266, Daudi) (human) (UniProt Q02223); test: flow cytometry on H929 cells; antibody 12.500 ng/ml
[3] = molecular target: BCMA on BCMA-expressing cells (H929 / NCI-H929, MM1.S, U266, Daudi) (human) (UniProt Q02223); test: flow cytometry on H929 cells; antibody 50.000 ng/ml
[4] = molecular target: BCMA on BCMA-expressing cells (H929 / NCI-H929, MM1.S, U266, Daudi) (human) (UniProt Q02223); test: flow cytometry on MM1.S cells; antibody 0.391 ng/ml
[5] = molecular target: BCMA on BCMA-expressing cells (H929 / NCI-H929, MM1.S, U266, Daudi) (human) (UniProt Q02223); test: flow cytometry on MM1.S cells; antibody 0.781 ng/ml
[6] = molecular target: BCMA on BCMA-expressing cells (H929 / NCI-H929, MM1.S, U266, Daudi) (human) (UniProt Q02223); test: flow cytometry on MM1.S cells; antibody 3.130 ng/ml
[7] = molecular target: BCMA on BCMA-expressing cells (H929 / NCI-H929, MM1.S, U266, Daudi) (human) (UniProt Q02223); test: flow cytometry on MM1.S cells; antibody 6.250 ng/ml
[8] = molecular target: BCMA on BCMA-expressing cells (H929 / NCI-H929, MM1.S, U266, Daudi) (human) (UniProt Q02223); test: flow cytometry on MM1.S cells; antibody 12.500 ng/ml
[9] = molecular target: recombinant BCMA (R&D Systems, catalog no. 193-BC) (human) (UniProt Q02223); test: competitive ELISA, plate-bound BCMA; Ab 0.002 ng/mL; competitor APRIL 0.00 ng/mL
[10] = molecular target: recombinant BCMA (R&D Systems, catalog no. 193-BC) (human) (UniProt Q02223); test: competitive ELISA, plate-bound BCMA; Ab 0.200 ng/mL; competitor APRIL 0.00 ng/mL
[11] = molecular target: recombinant BCMA (R&D Systems, catalog no. 193-BC) (human) (UniProt Q02223); test: competitive ELISA, plate-bound BCMA; Ab 0.020 ng/mL; competitor APRIL 31.25 ng/mL
[12] = molecular target: recombinant BCMA (R&D Systems, catalog no. 193-BC) (human) (UniProt Q02223); test: competitive ELISA, plate-bound BCMA; Ab 0.200 ng/mL; competitor APRIL 15.63 ng/mL
[13] = molecular target: recombinant BCMA (R&D Systems, catalog no. 193-BC) (human) (UniProt Q02223); test: competitive ELISA, plate-bound BCMA; Ab 0.200 ng/mL; competitor APRIL 31.25 ng/mL
[14] = molecular target: recombinant BCMA (R&D Systems, catalog no. 193-BC) (human) (UniProt Q02223); test: competitive ELISA, plate-bound BCMA; Ab 2.000 ng/mL; competitor APRIL 31.25 ng/mL
[15] = molecular target: recombinant BCMA (R&D Systems, catalog no. 193-BC) (human) (UniProt Q02223); test: competitive ELISA, plate-bound BCMA; Ab 20.000 ng/mL; competitor APRIL 7.81 ng/mL
[16] = molecular target: recombinant BCMA (R&D Systems, catalog no. 193-BC) (human) (UniProt Q02223); test: competitive ELISA, plate-bound BCMA; Ab 0.002 ng/mL; competitor APRIL 500.00 ng/mL
[17] = molecular target: recombinant BCMA (R&D Systems, catalog no. 193-BC) (human) (UniProt Q02223); test: competitive ELISA, plate-bound BCMA; Ab 2.000 ng/mL; competitor APRIL 125.00 ng/mL
[18] = molecular target: recombinant BCMA (R&D Systems, catalog no. 193-BC) (human) (UniProt Q02223); test: competitive ELISA, plate-bound BCMA; Ab 2.000 ng/mL; competitor APRIL 250.00 ng/mL
[19] = molecular target: recombinant BCMA (R&D Systems, catalog no. 193-BC) (human) (UniProt Q02223); test: competitive ELISA, plate-bound BCMA; Ab 20.000 ng/mL; competitor APRIL 62.50 ng/mL
[20] = molecular target: recombinant BCMA (R&D Systems, catalog no. 193-BC) (human) (UniProt Q02223); test: competitive ELISA, plate-bound BCMA; Ab 20.000 ng/mL; competitor APRIL 500.00 ng/mL
[21] = molecular target: recombinant BCMA (R&D Systems, catalog no. 193-BC) (human) (UniProt Q02223); test: competitive ELISA, plate-bound BCMA; Ab 200.000 ng/mL; competitor APRIL 15.63 ng/mL
[22] = molecular target: recombinant BCMA (R&D Systems, catalog no. 193-BC) (human) (UniProt Q02223); test: competitive ELISA, plate-bound BCMA; Ab 200.000 ng/mL; competitor APRIL 31.25 ng/mL
human BCMA protein = molecular target: T1, human BCMA protein (human, UniProt Q02223 1-54, limits assumed); test: ELISA protein and cell-binding assays
T1 sequence (looked up): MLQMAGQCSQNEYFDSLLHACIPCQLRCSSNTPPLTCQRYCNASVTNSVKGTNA

BCMA on BCMA-expressing cells (H929 / NCI-H929, MM1.S, U266, Daudi) (human), sequence (Q02223 whole entry): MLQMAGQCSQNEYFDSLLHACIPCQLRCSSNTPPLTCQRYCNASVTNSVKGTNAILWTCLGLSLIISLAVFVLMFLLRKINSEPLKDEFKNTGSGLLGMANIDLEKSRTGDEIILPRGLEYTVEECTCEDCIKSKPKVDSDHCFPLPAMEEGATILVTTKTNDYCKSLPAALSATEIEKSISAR

- MFI [1]: 5010
- MFI [2]: 5680
- MFI [3]: 10900
- MFI [4]: 2030
- MFI [5]: 2010
- MFI [6]: 2070
- MFI [7]: 2110
- MFI [8]: 2180
- A450-A570 [9]: 0.0578
- A450-A570 [10]: 0.0676
- A450-A570 [11]: 0.0551
- A450-A570 [12]: 0.0587
- A450-A570 [13]: 0.0601
- A450-A570 [14]: 0.121
- A450-A570 [15]: 0.789
- A450-A570 [16]: 0.0617
- A450-A570 [17]: 0.108
- A450-A570 [18]: 0.0921
- A450-A570 [19]: 0.537
- A450-A570 [20]: 0.253
- A450-A570 [21]: 2.37
- A450-A570 [22]: 2.42
B1: AntiX**BCMA_F7E_F7E (bispecific antibody, part only; not given: other chains of three-chain format, not shown: another chain or arm of the molecule)
tandem VH: QVQLVESGGGLVQPGGSLRLSCVASGFTFSSNAMSWVRQAPGKGLEWVSAISGSGDYTHYSDSVKGRFTISRDNSKNTLYLQMNSLRAEDTAVYYCAKEVPGGPLVDFDSRGQGTLVTVSSGGGGSGGGGSQVQLVESGGGLVQPGGSLRLSCVASGFTFSSNAMSWVRQAPGKGLEWVSAISGSGDYTHYSDSVKGRFTISRDNSKNTLYLQMNSLRAEDTAVYYCAKEVPGGPLVDFDSRGQGTLVTVSS

- binding result (human BCMA protein): binds
- MFI [1]: 5030
- MFI [4]: 2070
- MFI [5]: 2060
- MFI [6]: 2110
- MFI [7]: 2130
- A450-A570 [9]: 0.0616
- A450-A570 [10]: 0.0708
- A450-A570 [11]: 0.0622
- A450-A570 [12]: 0.0661
- A450-A570 [13]: 0.062
- A450-A570 [14]: 0.0875
- A450-A570 [15]: 0.495
- A450-A570 [16]: 0.0836
- A450-A570 [17]: 0.0736
- A450-A570 [18]: 0.0837
- A450-A570 [19]: 0.359
- A450-A570 [20]: 0.112
- A450-A570 [21]: 2.4
- A450-A570 [22]: 2.29
B2: anti-BCMA heavy chain-only antibody (UniAb) with the VH of SEQ ID NO: 12 (antibody, V domains shown)
VH: QVQLVESGGGLVQPGGSLRLSCVASGFTFSSNAMSWVRQAPGKGLEWVSAISGSGDYTHYSDSVKGRFTISRDNSKNTLYLQMNSLRAEDTAVYYCAKEVPGGPLVDFDSRGQGTLVTVSS
notes: Heavy chain-only antibody from UniRat; also called Clone ID No: 316302
